# Test results as given in US20240209086A1 (PETMEDIX, published 2024).
# T1: canine CD20 on cells (HEK293, MDCK II, CLBL-1 or native B cells) (canine, UniProt Q3C2E2 1-297)
# T1 construct: also called dCD20; cCD20
# T1 chain: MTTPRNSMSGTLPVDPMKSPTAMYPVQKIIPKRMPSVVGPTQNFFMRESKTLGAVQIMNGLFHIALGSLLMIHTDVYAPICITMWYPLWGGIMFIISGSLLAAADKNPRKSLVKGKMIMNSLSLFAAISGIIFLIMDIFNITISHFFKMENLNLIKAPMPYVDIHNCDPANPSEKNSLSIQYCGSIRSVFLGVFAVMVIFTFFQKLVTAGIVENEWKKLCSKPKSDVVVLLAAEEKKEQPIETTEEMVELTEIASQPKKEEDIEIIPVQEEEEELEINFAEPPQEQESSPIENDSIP
# Target: T1, canine CD20 on cells (HEK293, MDCK II, …)
# Assay: flow cytometry, canine CD20 HEK293 cells, 10 µg/ml, FITC anti-canine IgG
# Description: A CD20 binding screen was performed on candidate proteins produced from the canine CD20 immunisation as described in Examples 2 and 3. CHO cells supernatants containing candidate antibodies were diluted to 10 μg/ml in FACS buffer (PBS containing 3% FBS) and screened for their ability to bind canine CD20 expressed on cell surface. In brief, 1-2×10⁵ canine CD20-expressing HEK cells were incubated with candidate mAbs for one hour at 4° C., at a fixed concentration of 10 μg/ml followed by incubation with 5 μg/ml of FITC-conjugated anti-canine IgG secondary antibody (Bethyl Laboratories) for 1 hour at 4° C. Cells incubated with anti-canine IgG FITC secondary antibody and without primary anti-canine CD20 antibody, or with isotype control primary antibody, were used as negative controls. The data were acquired on either a Beckman Coulter CytoFLEX or a BD Accuri C6 Plus flow cytometer and analysed using FlowJo software.
row,binding result,Binder
1,binds,"PMX243 (monospecific anti-canine CD20, canine IgG-B, lambda C5) (antibody, V domains shown) VH: EVQLVESGGDLVKPGGSLRLSCVASGFTFSRYHMSWVRQAPGKGLQWVAYINSGGSNTDYTDAVKGRFTISRDNAKNTLYLQMNSLRAEDTAVYYCSSLDYWGQGTLVTVSS VL: SYVLTQLPSKNVTLKQPAHITCGGDNIGSKSVHWYQQKLGQAPVLIIYYDRRRPTGIPERFSGANSGNTATLTISGALAEDEADYYCQVWDRSGNVFGGGTHLTVLG"
2,binds,"PMX232 (monospecific anti-canine CD20, canine IgG-B, lambda C5) (antibody, V domains shown) VH: EMQLVESGGDLVKPGESLRLSCVASGISFNNYHMSWVRQAPGKGLQWVAYIDSVGTSTTYADAVKGRFTISRDNAKNTLYLQMNSLRAEDTAVYYCTTFDSWGQGTLVTVSS VL: SYVLTQLPSKNVTLKQPAHITCGGDNIGSKSVHWYQQKLGQAPVLIIYYDSRRPTGIPERFSGANSGNTATLTISGALAEDEADYYCQVWDSSANVFGGGTHLTVLG"
3,binds,"PMX260 (monospecific anti-canine CD20, canine IgG-B, lambda C5) (antibody, V domains shown) VH: EVQLVESGGDLVKPGGSLRLSCVASGFTFRRYHMSWVRQAPGKGLQWVAYIDSGGSGTSYADAVKGRFTISRDNAKNTLYLQMNSLRAEDTAVYYCSSLDYWGQGTLVTVSS VL: SYVLTQLPSKNVTLKQPAHITCGGDNIGSKSVHWYQQKLGQAPVLIIYYDSRRPTGIPERFSGANSGNTATLTISGALAEDEADYYCQVWDSSGNVFGGGTHLTVLG"
4,binds,"PMX252 (monospecific anti-canine CD20, canine IgG-B, lambda C5) (antibody, V domains shown) VH: EVQLVESGGDLVKPGGSLRLSCVASGFTFSRYHMSWVRQAPGKGLQWVAYINSGGSSTSYADAVKGRFTISRDNAKNTLYLQMNSLRAEDTAVYYCASLDYWGQGTLVTVSS VL: SYVLTQLPSKNVTLKQPAHITCGGDNIGSKSVHWYQQKLGQAPVLIIYYDSSRPTGIPERFSGANSGNTATLTISGALAEDEADYYCQVWDISANVFGGGTHLTVLG"
5,binds,"PMX267 (monospecific anti-canine CD20, canine IgG-B, lambda C5) (antibody, V domains shown) VH: EMQLVESGGDLVKPGGSLRLSCVASGFTFSRYHMSWVRQAPGKGLQWVAYIDSDGINTNYADAVKGRFTISRDNAKNTLYLQMNSLRAEDTALYYCTTFDYWGQGTLVTVSS VL: SYVLTQLPSKNVTLKQPAHITCGGDNIGSKSVHWYQQKLGQAPVLIIYYDSSRPTGIPERFSGANSGNTATLTISGALAEDEADYYCQVWDSSGNVFGGGTHLTVLG"
6,binds,"PMX263 (monospecific anti-canine CD20, canine IgG-B, lambda C5) (antibody, V domains shown) VH: EVQLVESGGDLVKPGGSLRLSCVASGFTFSRYYMNWVRQAPGKGLQWVAYINSGGSSTSYADAVKGRFTISRDNAKNTLYLQMNSLRADDTAVYYCTSFDYWGQGTLVTVSS VL: SYVLTQLPSKNVTLKQPAHITCGGDNIGSKSVHWYQQKLGQAPVLIIYYDSSRPTGIPERFSGANSGNTATLTISGALAEDEADYYCQVWDSSANVFGGGTHLTVLG"
7,binds,"PMX247 (monospecific anti-canine CD20, canine IgG-B, lambda C5) (antibody, V domains shown) VH: EVQLVESGGDLVKPGGSLRLSCVASGFTFSRYHMSWVRQAPGKGLQWVAYINSGGSPSSYADAVKGRFTISRDNAKNTLYLQMNSLRAEDTAVYYCTSFDCWGQGTLVTVSS VL: SYVLTQLPSKNVTLKQPAHITCGGDNIGSKSVHWYQQKLGQAPVLIIYYDSRRPTGIPERFSGANSGNTATLTISGALAEDEADYYCQVWDSSANVFGGGTHLTVLG"
8,binds,"PMX261 (monospecific anti-canine CD20, canine IgG-B, lambda C5) (antibody, V domains shown) VH: EVQLVESGGDLVKPGGSLRLSCVASGITFSRYYMNWVRQAPGKGLQWVAYIDSGGSPTTYADAVKGRFTISRDNAKKALYLQMNSLRAEDTAVYYCTSFDYWGQGTLVTVSS VL: SYVLTQLPSKNVTLKQPAHITCGGDNIGSKSVHWYQQKLGQAPVLIIYYDSSRPTGIPERFSGANSGNTATLTISGALAEDEADYFCQVWDSSANVFGGGTHLTVLG"
9,binds,"PMX258 (monospecific anti-canine CD20, canine IgG-B, lambda C5) (antibody, V domains shown) VH: EVQLVESGGDLVKPGGSLRLSCVASGLTFSRYYMNWVRQAPGKGLQWVAYINTGGSSTSYADAVKGRFTISRDNAKNTLYLQMNSLRAEDTAVYYCASFDYWGQGTLVTVSS VL: SYVLTQLPSKNVTLKQPAHITCGGDNIGSKSVHWYQQKLGQAPVLIIYYDSSRPTGIPERFSGANSGNTATLTISGALAEDEADYYCQVWDSSANVFGGGTHLTVLG"
10,binds,"PMX245 (monospecific anti-canine CD20, canine IgG-B, lambda C5) (antibody, V domains shown) VH: EVQLVESGGDLVKPGGSLRLSCVASGLTFSRYHMSWVRQAPGKGLQWVAYINSGGSSTDYADGVKGRFTISRDNAKNTLYLQMNSLRAEDTAVYYCTSLEDWGQGTLVTVSS VL: SYVLTQLPSKNVTLKQPAHITCGGDNIGSKSVHWYQQKLGQAPVLIIYYDSSRPTGIPERFSGANSGNTATLTISGALAEDEADYYCQVWDSSVNVFGGGTHLTVLG"
11,binds,"PMX259 (monospecific anti-canine CD20, canine IgG-B, lambda C5) (antibody, V domains shown) VH: EVQLVESGGDLVKPGGSLRLSCVASGFTFSRYHMSWVRQAPGKGLQWVAYINSGGSSTSYADAVKGRFTISRDNAKNTLYLQMNSLRAEDTAVYYCASFDYWGQGTLVTVSS VL: SYVLTQLPSKNVTLKQPAHITCGGDNIGSKSVHWYQQKLGQAPVLIIYYDSNRPTGIPERFSGANSGNTATLTISGALAEDEADYYCQVWDSSGNVFGGGTHLTVLG"
12,binds,"PMX246 (monospecific anti-canine CD20, canine IgG-B, lambda C5) (antibody, V domains shown) VH: EMQLVESGGDLVKPGGSLRLSCVASGFTFSRYHMSWVRQAPGKGLQWVAYINSGGSPTNYADAVKGRFTISRDNAKNTLYLQMNSLRAEDTAVYYCTTYDQWGQGTLVTVSS VL: SYVLTQLPSKSVTLKQPAHITCGGDNIGSKSVHWYQQKLGQAPVLIIYYDSSRPTGIPERFSGANSGNTATLTISGALAEDEADYYCQVWDTSANVFGGGTHLTVLG"
13,binds,"PMX262 (monospecific anti-canine CD20, canine IgG-B, lambda C5) (antibody, V domains shown) VH: EVQLVESGGDLVKPGGSLRLSCVASGITFSRYYMNWVRQAPGKGLQWVAYINSGGSPTTYADAVKGRFTISRDNAKNTLYLQMNSLRAEDTAVYYCTSFDYWGQGTLVTVSS VL: SYVLTQLPSKNVTLKQPAHITCGGDNIGSKSVHWYQQKLGQAPILIIYYDTSRPTGIPERFSGANSGNTATLTISGALAEDEADYYCQVWDSSANVFGGGTHLTVLG"
14,binds,"PMX248 (monospecific anti-canine CD20, canine IgG-B, lambda C5) (antibody, V domains shown) VH: EVQLVESGGDLVKPGGSLRLSCVASGFTFSRYHMSWVRQAPGKGLQWVAYINSGGSTTSYADAVKGRFTISRDNAKNTLYLQMNSLRAEDTAIYFCTSLDYWGQGTLVTVSS VL: SYVLTQLPSKNVTLKQPAHITCGGDNIGSKSVHWYQQKLGQAPILIIYYDSRRPTGIPERFSGANSGNTATLTISGALAEDEADYYCQVWDSSANVFGGGTHLTVLG"
15,binds,"PMX253 (monospecific anti-canine CD20, canine IgG-B, lambda C5) (antibody, V domains shown) VH: EVQMVESGGDLVKPGGSLRLSCVASGFTFSRYYMNWVRQAPGKGLQWVAYINSGGGSTSYADAVKGRFTISRDNAKNTLYLQMNSLRAEDTAVYYCSSFDYWGQGTLVTVSS VL: SYVLTQLPSKNVTLKQPAHITCGGDNIGSKSVHWYQQKLGQAPVLIIYYDSSRPTGIPERFSGANSGNTATLTISGALAEDEADYYCQVWDSSANVFGGGTHLTVLG"
16,binds,"PMX266 (monospecific anti-canine CD20, canine IgG-B, lambda C5) (antibody, V domains shown) VH: ELQLVESGGDLVKPGGSLRLSCVASGFTFSRYHMSWVRQAPGKGLQWVAYINSGGSSTSYADAVKGRFTISRDNAKNTLYLQMNSLRAEDTAVYYCTTFDSWGQGTLVTVSS VL: SYVLTQLPSKNVTLKQPAHITCGGDNIGSKSVHWYQQKLGQAPVLIIYYDSSRPTGIPERFSGANSGNTATLTISGALAEDEADYYCQVWDISANVFGGGTHLTVLG"
17,binds,"PMX249 (monospecific anti-canine CD20, canine IgG-B, lambda C5) (antibody, V domains shown) VH: EVQLVESGGDLVKPGGSLRLSCVASGFTFSRYHMSWVRQAPGKGLQWVAYINSGGSSTSYADAVKGRFTISRDNAKNTLYLQMNSLRAEDTAVYYCASFDYWGQGTLVTVSS VL: PYVLTQLPSKNVTLKQPAHITCGGDNIGSKSVHWYQQKLGQAPVLIIYYDSRRPTGIPERFSGANSGNTATLTISGALAEDEADYYCQVWDSSANVFGGGTHLTVLG"
18,binds,"PMX264 (monospecific anti-canine CD20, canine IgG-B, lambda C5) (antibody, V domains shown) VH: EVQLVESGGDLVKPGGSLRLSCVASGFTFSRYHMSWVRQAPGKGLQWVAFINTGRMSTNYADAVKGRFTISRDNAKNTLYLQMNSLRAEDTAVYYCTSLDYWGQGTLVTVSS VL: SYVLTQLPSKNVTLKQPAHITCGGDNIGSKSVHWYQQKLGQAPVLIIYYDSSRPTGIPERFSGANSGNTATLTISGALAEDEADYYCQVWDSSANVFGGGTHLTVLG"
19,binds,"PMX257 (monospecific anti-canine CD20, canine IgG-B, lambda C5) (antibody, V domains shown) VH: EVQLVESGGDLVKPGGSLRLSCVASGFTFSSYHMSWVRQAPGKGLQWVAYINSGGSSTSYADAVKGRFTISRDNAYSTLFLQMNNLRAEDTAVYYCTTLDSWGQGTLVTVSS VL: SYVLTQLPSKNVTLKQPAHITCGGDNIGSKSVHWYQQKLGQAPVLIIYYDSSRPTGIPERFSGANSGNTATLTISGALAEDEADYYCQVWDSSANVFGGGTHLTVLG"
20,binds,"PMX256 (monospecific anti-canine CD20, canine IgG-B, lambda C5) (antibody, V domains shown) VH: EVQLVESGGDLVKPGGSLRLSCVASGFTFSSYHMSWVRQAPGKGLQWVAYINSGGSSTSYADAVKGRFTISRDNAKNTLYFQMNSLRAEDTAVYYCTTFDSWGQGTLVTVSS VL: SYVLTQLPSKNVTLKQPAHITCGGDNIGSKSVHWYQQKLGQAPVLIIYYDSSRPTGIPERFSGANSGNTATLTISGALAEDEADYYCQVWDSSANVFGGGTHLTVLG"
